# Measured values: paper PMC7774078
# Substrate: NS(=O)(=O)c1cc(C(=O)O)c(NCc2ccco2)cc1Cl
# Assay: cells, lysate or membranes
# Conditions: ATP, Mg2+
protein,measurement,value
multidrug resistance-associated protein 4 (MRP4) (Homo sapiens) (protein) MLPVYQEVKPNPLQDANLCSRVFFWWLNPLFKIGHKRRLEEDDMYSVLPEDRSQHLGEELQGFWDKEVLRAENDAQKPSLTRAIIKCYWKSYLVLGIFTLIEESAKVIQPIFLGKIINYFENYDPMDSVALNTAYAYATVLTFCTLILAILHHLYFYHVQCAGMRLRVAMCHMIYRKALRLSNMAMGKTTTGQIVNLLSNDVNKFDQVTVFLHFLWAGPLQAIAVTALLWMEIGISCLAGMAVLIILLPLQSCFGKLFSSLRSKTATFTDARIRTMNEVITGIRIIKMYAWEKSFSNLITNLRKKEISKILRSSCLRGMNLASFFSASKIIVFVTFTTYVLLGSVITASRVFVAVTLYGAVRLTVTLFFPSAIERVSEAIVSIRRIQTFLLLDEISQRNRQLPSDGKKMVHVQDFTAFWDKASETPTLQGLSFTVRPGELLAVVGPVGAGKSSLLSAVLGELAPSHGLVSVHGRIAYVSQQPWVFSGTLRSNILFGKKYEKERYEKVIKACALKKDLQLLEDGDLTVIGDRGTTLSGGQKARVNLARAVYQDADIYLLDDPLSAVDAEVSRHLFELCICQILHEKITILVTHQLQYLKAASQILILKDGKMVQKGTYTEFLKSGIDFGSLLKKDNEESEQPPVPGTPTLRNRTFSESSVWSQQSSRPSLKDGALESQDTENVPVTLSEENRSEGKVGFQAYKNYFRAGAHWIVFIFLILLNTAAQVAYVLQDWWLSYWANKQSMLNVTVNGGGNVTEKLDLNWYLGIYSGLTVATVLFGIARSLLVFYVLVNSSQTLHNKMFESILKAPVLFFDRNPIGRILNRFSKDIGHLDDLLPLTFLDFIQTLLQVVGVVSVAVAVIPWIAIPLVPLGIIFIFLRRYFLETSRDVKRLESTTRSPVFSHLSSSLQGLWTIRAYKAEERCQELFDAHQDLHSEAWFLFLTTSRWFAVRLDAICAMFVIIVAFGSLILAKTLDAGQVGLALSYALTLMGMFQWCVRQSAEVENMMISVERVIEYTDLEKEAPWEYQKRPPPAWPHEGVIIFDNVNFMYSPGGPLVLKHLTALIKSQEKVGIVGRTGAGKSSLISALFRLSEPEGKIWIDKILTTEIGLHDLRKKMSIIPQEPVLFTGTMRKNLDPFNEHTDEELWNALQEVQLKETIEDLPGKMDTELAESGSNFSVGQRQLVCLARAILRKNQILIIDEATANVDPRTDELIQKKIREKFAHCTVLTIAHRLNTIIDSDKIMVLDSGRLKEYDEPYVLLQNKESLFYKMVQQLGKAEAAALTETAKQVYFKRNYPHIGHTDHMVTNTSNGQPSTLTIFETAL,Km,27.96 µM
